In paper PMC12093943, “The TetR-like regulator Sco4385 and Crp-like regulator Sco3571 modulate heterologous production of antibiotics in Streptomyces coelicolor M512” (Applied and Environmental Microbiology, 2025):

Molecular target: the molecule itself
Assay: SEC-MALS; Superose 6 increase 10/300 GL, room temperature, running buffer 50 mM Tris-HCl (pH 7.5), 250 mM NaCl, flow rate 0.4 mL/minute; MiniDAWN Treos

B1: TetR-family regulator Sco4385 (His-tagged) (natural protein, Streptomyces coelicolor M512, UniProt Q9K3V9 1-202, looked up)
chain: MNAADRTERVPKQDRSRATRQRLLEAAVACLAERGWAGSTVSVVAEHAGVSRGAAQHHFPTREDLFTAAVEYVAEERSIALRALFPEGAAADDRRAVVAALVDLYTGPLFRAALHLWVAASNEEQLRGRVTELEARVGRESHRIAVELLGADETRPGARETVQGLLDMARGLGLANLLTDDGARRERVVEQWARLLDAALAQ
notes: TetR-family regulator Sco4385 of Streptomyces coelicolor M512; Expressed from the vector pHis8 (plasmid pSW21); No tag cleavage is described; also called TFR Sco4385; TetR-type regulator Sco4385; source: E. coli BL21 DE3, purified (Ni-NTA chromatography, size exclusion chromatography)
With B1 as the protein, how does the “stoichiometry N” value read?
Its value is 2.
